Experimental data as given in patent US20230051701A1 (Bristol-Myers Squibb, published 2023).
Where a chain is given by its changes, count along the chain named. Numbers in names are those of the source. Where “and” joins values, the source holds several entries; their conditions need not be identical. Equal entries are not always repeated.

T1: human CD73 on cells (Calu6, NCI-H292, SK-MEL-24, human tumor cell lines, human B and T cells) (human, UniProt P21589 27-549)
T1 construct: Endogenous protein; also called endogenous CD73; cellular CD73
T1 sequence: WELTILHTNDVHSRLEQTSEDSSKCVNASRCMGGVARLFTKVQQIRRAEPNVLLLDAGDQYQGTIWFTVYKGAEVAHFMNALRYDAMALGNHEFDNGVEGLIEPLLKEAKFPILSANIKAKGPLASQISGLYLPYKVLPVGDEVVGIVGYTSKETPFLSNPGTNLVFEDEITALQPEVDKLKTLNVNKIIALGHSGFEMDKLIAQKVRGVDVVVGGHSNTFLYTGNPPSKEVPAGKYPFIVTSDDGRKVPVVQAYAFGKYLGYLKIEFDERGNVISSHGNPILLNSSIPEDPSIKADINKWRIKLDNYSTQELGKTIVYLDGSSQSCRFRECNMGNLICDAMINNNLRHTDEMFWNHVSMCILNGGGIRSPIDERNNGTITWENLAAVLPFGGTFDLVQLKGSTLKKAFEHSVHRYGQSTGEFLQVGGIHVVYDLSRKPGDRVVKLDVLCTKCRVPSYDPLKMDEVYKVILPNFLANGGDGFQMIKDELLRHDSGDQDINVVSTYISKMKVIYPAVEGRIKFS

T2: N-terminal domain of hCD73 (residues 26-336 of human CD73), His-tagged (human, UniProt P21589 26-336)
T2 construct: also called N-hCD73; N-hCD73-his
T2 sequence: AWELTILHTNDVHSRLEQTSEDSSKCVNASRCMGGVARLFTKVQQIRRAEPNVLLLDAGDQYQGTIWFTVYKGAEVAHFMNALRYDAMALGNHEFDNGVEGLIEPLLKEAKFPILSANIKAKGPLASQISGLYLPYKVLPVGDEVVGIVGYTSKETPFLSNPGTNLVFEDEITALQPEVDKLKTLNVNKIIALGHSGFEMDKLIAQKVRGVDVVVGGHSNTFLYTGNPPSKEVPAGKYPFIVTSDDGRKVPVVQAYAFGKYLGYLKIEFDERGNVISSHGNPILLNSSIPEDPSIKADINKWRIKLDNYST

T3: rhCD73 bound to his-tag magnet beads (human, UniProt P21589 27-549, limits assumed)
T3 sequence: T1 sequence

B1: CD73.4-IgG2-C219S (antibody)
heavy: QVQLVESGGGVVQPGRSLRLSCAASGFTFSNYGMHWVRQAPGKGLEWVAVILYDGSNKYYPDSVKGRFTISRDNSKNTLYLQMNSLRAEDTAVYYCARGGSSWYPDSFDIWGQGTMVTVSSASTKGPSVFPLAPCSRSTSESTAALGCLVKDYFPEPVTVSWNSGALTSGVHTFPAVLQSSGLYSLSSVVTVPSSNFGTQTYTCNVDHKPSNTKVDKTVERKSCVECPPCPAPPVAGPSVFLFPPKPKDTLMISRTPEVTCVVVDVSHEDPEVQFNWYVDGVEVHNAKTKPREEQFNSTFRVVSVLTVVHQDWLNGKEYKCKVSNKGLPAPIEKTISKTKGQPREPQVYTLPPSREEMTKNQVSLTCLVKGFYPSDIAVEWESNGQPENNYKTTPPMLDSDGSFFLYSKLTVDKSRWQQGNVFSCSVMHEALHNHYTQKSLSLSPG
light: not shown
notes: also called CD73.4-IgG2CS; CD73.4-IgG2.3
B2: CD73.10-IgG2-C219S (antibody)
heavy: B1 heavy with L52W, G55E
light: not shown
notes: also called CD73.10-IgG2CS; CD73.10-IgG2S
B3: CD73.4-IgG2-C219S-IgG1.1f (antibody)
heavy: B1 heavy with Q274K, F296Y, F300Y, V309L, G327A, A330S, P331S, T339A, M397V
light: not shown
modifications: 94% of the N-terminal glutamine was pyro-Q; 97% of the heavy chains lacked the C-terminal lysine
notes: also called CD73.4-IgG2CS-IgG1.1f

Experiments:
[1] = biological target: T1, human CD73 on cells (Calu6, NCI-H292, …); experiment: flow cytometry, FITC-mAb, T cells of donor D329
Experimental: (§1) Binding of CD73.4 antibody to human B and T cells was also determined. Human blood from two donors, D316 and D329, was obtained from Immunsciences, BMS. Peripheral blood mononuclear cells (PBMC) were isolated with Lympholyte-H cell separation gradient media. […] Cells from both donors were pooled for the unstained and FMO (Fluorescence minus one) control samples.

[2] = biological target: T1, human CD73 on cells (Calu6, NCI-H292, …); experiment: flow cytometry, FITC-mAb, B cells of donor D329
Experimental: as §1

[3] = biological target: T1, human CD73 on cells (Calu6, NCI-H292, …); experiment: flow cytometry, FITC-mAb, T cells of donor D316
Experimental: as §1

[4] = biological target: T1, human CD73 on cells (Calu6, NCI-H292, …); experiment: cell-based or functional assay
[5] = biological target: T2, N-terminal domain of hCD73 (residues …); experiment: SPR, comparison of all IgG2 molecules
Experimental: For these experiments, protein A (Pierce) was immobilized to a density of 3000 — 4000 RU on flow cells 1-4 of a CM5 sensor chip (GE Healthcare) using standard ethyl(dimethylaminopropyl) carbodiimide (EDC)/N-hydroxysuccinimide (NHS) chemistry, with ethanolamine blocking, in a running buffer of 0.01 M HEPES pH 7.4, 0.15 M NaCl, 3 mM EDTA, 0.005% v/v tween 20. […] The running buffer for the kinetic experiments was 10 mM sodium phosphate, 130 mM sodium chloride, 0.05% tween 20, pH 7.1. The surfaces were regenerated after each cycle using two 30 s pulses of 10 mM glycine pH 1.5 at a flow rate of 30 μl/min. Sensogram data was double-referenced and then fitted to a 1:1 Langmuir model using Biacore T100 evaluation software v2.0.4, to determine the association rate constant (ka), the dissociation rate constant (kd), and the equilibrium dissociation constant (KD).

[6] = biological target: T1, human CD73 on cells (Calu6, NCI-H292, …); experiment: flow cytometry, human tumor cell lines
Experimental: Titration binding curves were produced with CD73 antibodies on Calu6 (CD73 endogenous expressors; human pulmonary adenocarcinoma cell line), DMS114 (CD73 negative; human small cell lung cancer cell line), CHO-cynoCD73 (cynoCD73-transfected) and CHO-K1 (cynoCD73 negative), cells using Alexa Fluor® 647 Goat Anti-Human IgG (H+L) as a secondary antibody, Invitrogen Cat#A-21445, using the following method: 100000 cells were plated in 100 uL PBS+2% FBS per well and blocked for 20 min. Using a U-bottom 96-deep well plate, volumes of antibody and PBS+2% FBS were combined as dictated by Table 12 below.
An 8-point serial dilution was performed by diluting a sixth of the volume (90 uL) into 450 μL PBS+2% FBS. The cell plate was spun down for 5 minutes at 1500 rpm. 100 uL of diluted antibody was added per well of the plate. 100 uL PBS+2% FBS were added to all other wells. […] The plates were spun down at 1500 rpm for 5 min and washed in 200 uL PBS +2% FBS per well. The plates were washed again, resuspended in 200 uL 2% FBS in PBS per well and the samples were run.

[7] = biological target: T3, rhCD73 bound to his-tag magnet beads; experiment: cell-based or functional assay
[8] = biological target: T1, human CD73 on cells (Calu6, NCI-H292, …); experiment: cell-based or functional assay; remark: listed apart in the source

Binder	IC50 [1] [pM]	IC50 [2] [pM]	IC50 [3] [pM]	CD73 Inhibition EC50(nM), cAMP assay, Calu6 [4]	fold lower affinity than 11F11 or CD73.4 [5] [fold]	EC50 [6]	EC50, recombinant human CD73 enzyme inhibition assay [7] [pM]	EC50, blockade of endogenous cellular CD73 in Calu6 [8] [pM]	EC50 for blockade of endogenous cellular CD73 in Calu6 [8] [pM]	CD73 Inhibition S:B, cAMP assay, Calu6 [4]
B1	135	77.7	180	1.56 nM and 1.78 nM						
B2					~10					
B3	241	145	183	1.28 nM		0.5 nM and 0.3 nM to 0.67 nM (2×)	2900 to 3100	310 to 480	310 to 480	12
